pKa data for six substances are collected here from article PMC9952396.

Where “and” joins values, the source holds several entries; their conditions need not be identical. Equal entries are not always repeated. Where two headings read alike, the source gives them in different places.

For data set [1], the target named is T1, Cys30 (UniProt position 49, FFSFFCPHCYQ). As to the kind of experiment: UV-vis. The conditions noted are these: room temperature, 200 mM KCl plus buffer salts, 10 mM dipotassium phosphate, 10 mM monopotassium phosphate, 10 mM sodium citrate, 10 mM Tris, 1 mM EDTA, Reduced DsbA (DTT-reduced, reagent removed), with oxidised DsbA (Cu(II)-phenanthroline-oxidised) as reference.

In data set [2] the target is T1, Cys30. As to conditions: not stated (literature values for wild-type EcDsbA); cited from earlier work.

In the case of “EcDsbA E24A (Escherichia coli (K-12); E24A)”, in the data set with Cys30 [1], the pKa stood at 3.7 ± 0.1.

For the substance “EcDsbA E24A/E37A/K58A (Escherichia coli (K-12); E24A;E37A;K58A)”, in the data set with Cys30 [1], the pKa was determined as 3.5 ± 0.1.

On to “EcDsbA E24A/K58A (Escherichia coli (K-12); E24A;K58A)”, for which the pKa with Cys30 [1] was found to be 3.5 ± 0.1.

“EcDsbA E37A (Escherichia coli (K-12); E37A)”: the pKa with Cys30 [1] was 3.3 ± 0.1.

“EcDsbA K58A (Escherichia coli (K-12); K58A)”: the pKa with Cys30 [1] came out at 3.4 ± 0.1.

“Thiol:disulfide interchange protein DsbA (EcDsbA), wild type (Escherichia coli (K-12))”: the pKa with Cys30 [2] was 3.55 ± 0.02 and ~3.4; in the data set with Cys30 [1], 3.3 ± 0.1.

By pKa is commonly meant the negative logarithm of the acid dissociation constant.
